B1: SC73.101 (antibody, V domains shown)
VH: QIHLVQSGPELKKPGETVKISCKASGYTFTDYSMHWVKQAPGKGLKWMGWINTETGEPTYPDDFKGRFAFSLETSASTAYLQINNLKNEDTATYFCARGYGYDETGTFAYWGQGTLVTVSA
VL: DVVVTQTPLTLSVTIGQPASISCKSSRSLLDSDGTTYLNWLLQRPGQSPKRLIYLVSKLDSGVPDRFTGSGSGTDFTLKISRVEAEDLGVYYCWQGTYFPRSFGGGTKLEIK
notes: Murine hybridoma antibody, second inoculation campaign; mouse IgG2a was used as its isotype control in IHC; also called anti-MMP16 antibody (clone SC73.101)
B2: SC73.17 (antibody, V domains shown)
VH: EVQLQQSGAELVKPGASVKLSCTASGFNFKDTYMHWVKQRPEQGLEWIGRIDPAIGITEYGPKFQGKATITADTSSNTAYLQLSSLTSEDTAVYYCTRGDFYGNSLDVWGAGTTVTVSS
VL: DIVMTQSPATLSVTPGDRVSLSCRASQIISDYLHWYRQKSHESPRLLIKYASQSISGIPSRFSGSGSGSDFTLSINSVEPEDVGVYYCQNGHSFPLTFGTGTKLELK
notes: Murine hybridoma antibody, first inoculation campaign

Tests used:
[1] = target: T1, hMMP16ECD(E247A)-His (human, UniProt P51512 32-564); assay: colorimetric ELISA, plate coated with hMMP16-his at 3 ug/mL, antibody 0.5 ug/mL
T1 construct: IgK signal peptide upstream (cleaved); also called hMMP16-his; hMMP16-His protein
T1 sequence (P51512 other isoform, or with tags, fused parts or gaps E247A E247A): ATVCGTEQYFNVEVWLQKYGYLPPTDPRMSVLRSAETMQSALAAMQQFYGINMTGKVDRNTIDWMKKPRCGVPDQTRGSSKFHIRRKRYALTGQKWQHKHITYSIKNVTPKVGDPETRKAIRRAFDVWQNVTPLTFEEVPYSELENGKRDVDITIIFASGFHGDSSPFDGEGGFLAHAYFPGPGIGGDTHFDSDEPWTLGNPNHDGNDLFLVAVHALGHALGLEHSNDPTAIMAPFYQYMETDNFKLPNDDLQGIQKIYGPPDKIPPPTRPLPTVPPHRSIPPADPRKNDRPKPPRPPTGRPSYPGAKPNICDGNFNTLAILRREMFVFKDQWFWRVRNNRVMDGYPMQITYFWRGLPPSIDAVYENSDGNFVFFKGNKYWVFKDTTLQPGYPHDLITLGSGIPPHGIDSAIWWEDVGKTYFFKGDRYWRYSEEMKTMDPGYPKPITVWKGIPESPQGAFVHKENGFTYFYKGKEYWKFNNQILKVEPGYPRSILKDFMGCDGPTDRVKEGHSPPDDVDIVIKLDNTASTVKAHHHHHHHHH

[2] = target: T2, hMMP16ECD(E247A)-Fc (human, UniProt P51512 32-564); assay: MSD ELISA, plate coated with hMMP16ECD(E247A)-Fc at 2 ug/mL, antibody 0.5 ug/mL
T2 construct: IgK signal peptide upstream (cleaved); also called phMMP16ECD(E247A)-Fc; not shown: human IgG2 Fc protein
T2 sequence (P51512 32-564 E247A): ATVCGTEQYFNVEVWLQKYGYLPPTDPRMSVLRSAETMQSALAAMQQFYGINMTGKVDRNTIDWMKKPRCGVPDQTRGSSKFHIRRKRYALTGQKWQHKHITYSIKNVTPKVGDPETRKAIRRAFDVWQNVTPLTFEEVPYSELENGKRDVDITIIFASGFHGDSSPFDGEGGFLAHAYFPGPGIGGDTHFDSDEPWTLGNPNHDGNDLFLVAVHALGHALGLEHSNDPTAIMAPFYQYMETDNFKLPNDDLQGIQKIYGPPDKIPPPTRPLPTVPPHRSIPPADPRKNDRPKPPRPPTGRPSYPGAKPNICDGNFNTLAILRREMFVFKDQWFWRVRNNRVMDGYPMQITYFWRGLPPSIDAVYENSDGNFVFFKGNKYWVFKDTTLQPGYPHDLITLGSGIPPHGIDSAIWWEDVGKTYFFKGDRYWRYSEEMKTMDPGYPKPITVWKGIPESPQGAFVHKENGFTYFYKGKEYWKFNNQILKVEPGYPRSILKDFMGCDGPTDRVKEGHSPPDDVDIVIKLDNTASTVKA

Row | Binder | binding result [1] | binding result [2]
1 | B1 | binds | –
2 | B2 | – | binds
